Source: the supplement of paper PMC11316812
± gives the standard deviation of the averaged measurements.

Key:
MCF7 = experiment: percentage of EdU-negative (G0-arrested) nuclei per well, 72 h; higher = more G0 arrest; conditions: reference: sequence is the full UniProt precursor, the tested protein was the secreted form or ectodomain
hTERT-HMEC = experiment: as above; conditions: reference: sequence is the full UniProt precursor, the tested protein was the secreted form or ectodomain
[1] = protein concentration 0.01625 µM
[2] = protein concentration 0.1625 µM
[3] = protein concentration 0.017475 µM
[4] = protein concentration 0.17475 µM
[5] = protein concentration 0.0225 µM
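Also: secreted proteins added to cultured cells, EdU pulse at the end, nuclei found by Hoechst imaging, EdU status from nuclear versus surrounding ring intensity ratio, PBS as neutral control.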

Sequence | percentage of EdU-negative (MCF7; [5]) [%] | percentage of EdU-negative (MCF7; protein concentration 0.225 µM) [%] | percentage of EdU-negative (hTERT-HMEC; [5]) [%] | percentage of EdU-negative (hTERT-HMEC; protein concentration 0.225 µM) [%] | further results
MEVTCLLLLALIPFHCRGQGVYAPAQAQIVHAGQACVVKEDNISERVYTIREGDTLMLQCLVTGHPRPQVRWTKTAGSASDKFQETSVFNETLRIERIARTQGGRYYCKAENGVGVPAIKSIRVDVQYLDEPMLTVHQTVSDVRGNFYQEKTVFLRCTVNSNPPARFIWKRGSDTLSHSQDNGVDIYEPLYTQGETKVLKLKNLRPQDYASYTCQVSVRNVCGIPDKAITFRLTNTTAPPALKLSVNETLVVNPGENVTVQCLLTGGDPLPQLQWSHGPGPLPLGALAQGGTLSIPSVQARDSGYYNCTATNNVGNPAKKTVNLLVRSMKNATFQITPDVIKESENIQLGQDLKLSCHVDAVPQEKVTYQWFKNGKPARMSKRLLVTRNDPELPAVTSSLELIDLHFSDYGTYLCMASFPGAPVPDLSVEVNISSETVPPTISVPKGRAVVTVREGSPAELQCEVRGKPRPPVLWSRVDKEAALLPSGLPLEETPDGKLRLERVSRDMSGTYRCQTARYNGFNVRPREAQVQLNVQFPPEVEPSSQDVRQALGRPVLLRCSLLRGSPQRIASAVWRFKGQLLPPPPVVPAAAEAPDHAELRLDAVTRDSSGSYECSVSNDVGSAACLFQVSAKAYSPEFYFDTPNPTRSHKLSKNYSYVLQWTQREPDAVDPVLNYRLSIRQLNQHNAVVKAIPVRRVEKGQLLEYILTDLRVPHSYEVRLTPYTTFGAGDMASRIIHYTEPINSPNLSDNTCHFEDEKICGYTQDLTDNFDWTRQNALTQNPKRSPNTGPPTDISGTPEGYYMFIETSRPRELGDRARLVSPLYNASAKFYCVSFFYHMYGKHIGSLNLLVRSRNKGALDTHAWSLSGNKGNVWQQAHVPISPSGPFQIIFEGVRGPGYLGDIAIDDVTLKKGECPRKQTDPNKVVVMPGSGAPCQSSPQLWGPMAIFLLALQR [Q8NFP4] | – | – | – | – | percentage of EdU-negative (MCF7; [1]): 25.1 ± 2%; percentage of EdU-negative (MCF7; [2]): 26.2 ± 1.5%; percentage of EdU-negative (hTERT-HMEC; [1]): 4.84 ± 1.1%; percentage of EdU-negative (hTERT-HMEC; [2]): 5.63 ± 0.16%
MEWPARLCGLWALLLCAGGGGGGGGAAPTETQPPVTNLSVSVENLCTVIWTWNPPEGASSNCSLWYFSHFGDKQDKKIAPETRRSIEVPLNERICLQVGSQCSTNESEKPSILVEKCISPPEGDPESAVTELQCIWHNLSYMKCSWLPGRNTSPDTNYTLYYWHRSLEKIHQCENIFREGQYFGCSFDLTKVKDSSFEQHSVQIMVKDNAGKIKPSFNIVPLTSRVKPDPPHIKNLSFHNDDLYVQWENPQNFISRCLFYEVEVNNSQTETHNVFYVQEAKCENPEFERNVENTSCFMVPGVLPDTLNTVRIRVKTNKLCYEDDKLWSNWSQEMSIGKKRNSTLYITMLLIVPVIVAGAIIVLLLYLKRLKIIIFPPIPDPGKIFKEMFGDQNDDTLHWKKYDIYEKQTKEETDSVVLIENLKKASQ | – | – | – | – | percentage of EdU-negative (MCF7; [3]): 26.4 ± 0.86%; percentage of EdU-negative (MCF7; [4]): 26.6 ± 2%; percentage of EdU-negative (hTERT-HMEC; [3]): 5.5 ± 0.74%; percentage of EdU-negative (hTERT-HMEC; [4]): 5.19 ± 0.27%
MEYQILKMSLCLFILLFLTPGILCICPLQCICTERHRHVDCSGRNLSTLPSGLQENIIHLNLSYNHFTDLHNQLTQYTNLRTLDISNNRLESLPAHLPRSLWNMSAANNNIKLLDKSDTAYQWNLKYLDVSKNMLEKVVLIKNTLRSLEVLNLSSNKLWTVPTNMPSKLHIVDLSNNSLTQILPGTLINLTNLTHLYLHNNKFTFIPDQSFDQLFQLQEITLYNNRWSCDHKQNITYLLKWMMETKAHVIGTPCSTQISSLKEHNMYPTPSGFTSSLFTVSGMQTVDTINSLSVVTQPKVTKIPKQYRTKETTFGATLSKDTTFTSTDKAFVPYPEDTSTETINSHEAAAATLTIHLQDGMVTNTSLTSSTKSSPTPMTLSITSGMPNNFSEMPQQSTTLNLWREETTTNVKTPLPSVANAWKVNASFLLLLNVVVMLAV | 24.1 ± 0.32 | 27.6 ± 1.6 | 5.851 ± 0.022 | 10.4 ± 1.5 | –
MFCPLKLILLPVLLDYSLGLNDLNVSPPELTVHVGDSALMGCVFQSTEDKCIFKIDWTLSPGEHAKDEYVLYYYSNLSVPIGRFQNRVHLMGDILCNDGSLLLQDVQEADQGTYICEIRLKGESQVFKKAVVLHVLPEEPKELMVHVGGLIQMGCVFQSTEVKHVTKVEWIFSGRRAKEEIVFRYYHKLRMSVEYSQSWGHFQNRVNLVGDIFRNDGSIMLQGVRESDGGNYTCSIHLGNLVFKKTIVLHVSPEEPRTLVTPAALRPLVLGGNQLVIIVGIVCATILLLPVLILIVKKTCGNKSSVNSTVLVKNTKKTNPEIKEKPCHFERCEGEKHIYSPIIVREVIEEEEPSEKSEATYMTMHPVWPSLRSDRNNSLEKKSGGGMPKTQQAF [Q86YT9] | 23.21 ± 0.041 | 24.8 ± 2.1 | 4.64 ± 0.38 | 5.35 ± 1.2 | –
MFFWCACCLMVAWRVSASDAEHCPELPPVDNSIFVAKEVEGQILGTYVCIKGYHLVGKKTLFCNASKEWDNTTTECRLGHCPDPVLVNGEFSSSGPVNVSDKITFMCNDHYILKGSNRSQCLEDHTWAPPFPICKSRDCDPPGNPVHGYFEGNNFTLGSTISYYCEDRYYLVGVQEQQCVDGEWSSALPVCKLIQEAPKPECEKALLAFQESKNLCEAMENFMQQLKESGMTMEELKYSLELKKAELKAKLL | 24.2 ± 1.2 | 27.8 ± 3.5 | 5.33 ± 0.68 | 12 ± 1.5 | –
